Article PMC2132824
“And” between values parts separate entries of the source, which are not always exact repeats. Equal entries are not always repeated.

Tests used:
Assay in all cases: co-sedimentation
[1] = molecular target: rabbit skeletal muscle F-actin (rabbit) (UniProt P68135)
[2] = molecular target: human platelet nonmuscle F-actin (human) (UniProt P60709)
F-actin = molecular target: F-actin

- Kd [1]: 150 nM
- Kd [2]: 50 nM
- stoichiometry N (actin monomers per espin) (F-actin): 3 and 4
Substance: recombinant full-length small espin (natural protein)
